In patent US11491212:

B1: FIXa-Y155F/K247N/N249S/R318Y/R338E (protein)
chain 1: not shown
chain 2: not shown
B2: FIXa-Y155F/R338E/T343R/R403E (protein)
chain 1: not shown
chain 2: not shown
B3: FIXa-Y155F/R338E/T343R/R403E/E410S (protein)
chain 1: not shown
chain 2: not shown
B4: FIXa-Y155F/K247N/N249S/R318Y/T343R (protein)
chain 1: not shown
chain 2: not shown
B5: FIXa-Y155F/K247N/N249S/T343R/R403E (protein)
chain 1: not shown
chain 2: not shown
B6: FIXa-K247N/N249S/R338E/T343R/R403E/E410N (protein)
chain 1: not shown
chain 2: not shown
B7: FIXa-Y155F/K247N/N249S/R318Y/R338E/T343R/R403E (protein)
chain 1: not shown
chain 2: not shown
B8: FIXa-Y155F/K247N/N249S/R338E/T343R/R403E/E410N (protein)
chain 1: not shown
chain 2: not shown
B9: FIXa-Y155F/I251S/R338E/T343R/R403E (protein)
chain 1: not shown
chain 2: not shown
B10: FIXa-Y155F/N260S/R338E/T343R/R403E (protein)
chain 1: not shown
chain 2: not shown
B11: FIXa-K247N/N249S/R318Y/R338E/T343R/R403E (protein)
chain 1: not shown
chain 2: not shown
B12: FIXa-R318Y/R338E/T343R/R403E/E410S (protein)
chain 1: not shown
chain 2: not shown
B13: FIXa-Y155F/K228N/K247N/N249S/R318Y/R338E/T343R/R403E/E410N (protein)
chain 1: not shown
chain 2: not shown
B14: FIXa-R338E/T343R/R403E (protein)
chain 1: not shown
chain 2: not shown

Each protein was assayed against Factor X, P00742.
Chain of Factor X, P00742 (P00742 whole entry, looked up): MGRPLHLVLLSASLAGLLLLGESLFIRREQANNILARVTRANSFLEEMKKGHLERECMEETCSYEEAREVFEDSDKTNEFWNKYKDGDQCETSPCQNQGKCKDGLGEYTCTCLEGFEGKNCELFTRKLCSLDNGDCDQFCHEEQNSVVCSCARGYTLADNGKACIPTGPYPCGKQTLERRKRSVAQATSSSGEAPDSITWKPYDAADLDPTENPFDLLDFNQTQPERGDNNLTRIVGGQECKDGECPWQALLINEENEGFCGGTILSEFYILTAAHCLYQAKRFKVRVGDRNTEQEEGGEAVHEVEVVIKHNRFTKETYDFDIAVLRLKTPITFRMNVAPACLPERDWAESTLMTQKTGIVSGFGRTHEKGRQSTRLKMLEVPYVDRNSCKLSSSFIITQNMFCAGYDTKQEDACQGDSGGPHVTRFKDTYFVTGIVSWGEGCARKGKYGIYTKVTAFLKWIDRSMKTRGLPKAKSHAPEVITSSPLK
B1 was tested, and the “% of WT kcat/KM” value was 632%, the KM was 0.0263 µM and the kcat/KM was 2.9e+08 M⁻¹ s⁻¹. For B2, the KM was 0.0289 µM and the kcat/KM was 2e+08 M⁻¹ s⁻¹. B3 showed a KM of 0.0239 µM and a kcat/KM of 2.9e+08 M⁻¹ s⁻¹. In the case of B4, the “% of WT kcat/KM” value is reported as 549%, the KM is reported as 0.0421 µM and the kcat/KM is reported as 2.5e+08 M⁻¹ s⁻¹. Work on B5 yielded a KM of 0.0596 µM and a kcat/KM of 8.5e+07 M⁻¹ s⁻¹. B6 was tested, and the “% of WT kcat/KM” value was 930%, the KM was 0.0251 µM and the kcat/KM was 4.3e+08 M⁻¹ s⁻¹. B7 gave a KM of 0.0365 µM and a kcat/KM of 2.9e+08 M⁻¹ s⁻¹. B8 was tested, and the KM was 0.0264 µM and the kcat/KM was 3.7e+08 M⁻¹ s⁻¹. For B9, the KM was 0.0196 µM and the kcat/KM was 3e+08 M⁻¹ s⁻¹. Protein B10 has a KM of 0.0692 µM and a kcat/KM of 9.4e+07 M⁻¹ s⁻¹. B11 was tested, and the KM was 0.0284 µM and the kcat/KM was 4.1e+08 M⁻¹ s⁻¹. B12 was tested, and the KM was 0.019 µM and the kcat/KM was 4.4e+08 M⁻¹ s⁻¹. Protein B13 has a KM of 0.0368 µM and a kcat/KM of 3e+08 M⁻¹ s⁻¹. B14 showed a KM of 0.0235 µM and a kcat/KM of 3.1e+08 M⁻¹ s⁻¹.
